Test results from patent US10676765B2, “Methods for producing 3-hydroxy-3-methylbutyric acid” (Global Bioenergies, priority 2015, dated 2020).

How the values were obtained:
[1] = Conversion of 3-methylcrotonyl-CoA and ADP into 3-methylcrotonic acid and ATP, phosphate butyryltransferase from Enterococcus faecalis with butyrate kinases; format: biochemical; settings: 4 mM 3-methylcrotonyl-CoA, 4 mM ADP, 0.2 mg/ml each enzyme, 20 min, 30° C.
Protocol: (§1) The enzymatic assays were conducted in a total reaction volume of 0.2 ml.
(§2) The standard reaction mixture contained:
(§3) 50 mM potassium phosphate buffer pH 7.5
4 mM 3-methylcrotonyl-CoA
(§4) 0.2 mg/ml of purified phosphate butyryltransferase from Enterococcus faecalis
(§5) 0.2 mg/ml of purified butyrate kinase from Lactobacillus casei or Geobacillus sp.
A series of controls was performed in parallel (Assays C-H Table 10).
Assays were then incubated for 20 min with shaking at 30° C.
(§6) After an incubation period, the reactions were stopped by heating the reaction medium 4 min at 90° C. The samples were centrifuged, filtered through a 0.22 μm filter and the clarified supernatants were transferred into a clean vial for further analysis. The consumption of ADP and 3-methylcrotonyl-CoA and the formation of ATP and 3-methylcrotonic acid and free coenzyme A (CoA-SH) were followed by HPLC analysis according to the methods described in Example 10 and Example 12.

[2] = Conversion of 3-hydroxyisovaleryl-CoA and ADP into 3-hydroxyisovaleric acid and ATP, phosphate butyryltransferase from Enterococcus faecalis with butyrate kinases; format: biochemical; settings: 4 mM 3-hydroxyisovaleryl-CoA, 4 mM ADP, 0.2 mg/ml each enzyme, 20 min, 30° C.
Protocol: as §1, §2, §3
4 mM 3-hydroxyisovaleryl-CoA
as §4, §5
A series of controls were performed in parallel (Assays C-H Table 5).
The assays were then incubated for 20 min with shaking at 30° C.
as §6, with “3-hydroxyisovaleryl-CoA,” for “3-methylcrotonyl-CoA”, “3-hydroxyisovaleric” for “3-methylcrotonic”, “10.” for “10 and Example 12.”

B1: phosphate butyryltransferase from Enterococcus faecalis: phosphate butyryltransferase (EC 2.3.1.19) from Enterococcus faecalis MTUP9, Uniprot A0A038BNC2 (protein, listed as Enterococcus faecalis)
chain: MITVSIAGGSQPEILQLVKKALKEAEQPLQFIVFDTNENLDTENLWKYVHCSDEATVAQEAVSLVATGQAQILLKGIIQTHTLLKEMLKSEHQLKNKPILSHVAMVELPAGKTFLLTDCAMNIAPTQATLIEIVENAKEVAQKLGLHHPKIALLSAAENFNPKMPSSVLAKEVTAHFNGQQEATVFGPLSLDLATSEEAVAHKRYSGPIMGDADILVVPTIDVGNCLYKSLTLFGHAKVGGTIVGTKVPVVLTSRSDSTESKFHSLRFAMRQV
modifications: MTUP9
notes: phosphate butyryltransferase (EC 2.3.1.19) from Enterococcus faecalis MTUP9, Uniprot A0A038BNC2
production of 3-methylcrotonic acid and ATP [1]: significant production of 3-methylcrotonic acid without simultaneous generation of ATP | production of 3-hydroxyisovaleric acid and ATP [2]: significant production of 3-hydroxyisovaleric acid, without simultaneous generation of ATP
